Laboratory results: patent publication US20110217734A1 (UNIVERSITY OF ILLINOIS AT URBANA CHAMPAIGN, published 2011)

Target: the molecule itself
Assay: size-exclusion chromatography, self-association

B1: RhiG-C-His (enzyme)
chain: MKMQLIDCTLRDGGNFNNWFFSAEDINQIILHLDKANVNIIEIGYIGGSGSNKEKSVGSLANCTPELLEQLPKTIHSHLAAMVVPSVCELHLLDNLNPQLIPWIRVASYPHNAEDALPYIEYLKNRGFHVSFNVMAASYIEEKDMAELAKKSHVFGADVFYMADSFGNLTPDGVRKRVAAAFDQADCPVGFHGHNNLGLAFTNALEAMDAGATFIDTSLCGMARGAGNLPTEQFVSAIHHWDKFGDIPYKLHPILTAAEYVLSSILSSPMKISTPEIISGISNIHYYFYDLVISKCREVNLDPLQVSTLLGQTLPKRVDMSYIESVIDQNFRQESAK
notes: Recombinant protein expressed in E. coli BL21(DE3), 38.7 kDa per chain; Size-exclusion chromatography gave a native MW of about 75 kDa (homodimer); also called RhiG purified as a C-terminal fusion with a hexahistidine tag; not shown: C-terminal hexahistidine tag from the pET26b vector
B1: binds.
